Experimental findings from patent US20220177587A1, “METHODS AND USES OF VARIANT CD80 FUSION PROTEINS AND RELATED CONSTRUCTS” (Alpine Immune Sciences, Inc., priority 2018, published 2022) are described below.

Assay [1] concerns the target human PD-L1 (huPD-L1), on stably transduced CHO cells (human) (UniProt Q9NZQ7). In words: flow cytometry on CHO/huPD-L1 cells; MFI relative to WT CD80 (CD80 WT IgV-Fc = 1.0).
For assay [2] the target is unchanged. Put plainly: flow cytometry; ratio of MFI on CHO/huPD-L1 cells to MFI on Jurkat (CD28) cells. Background: A flow cytometer gives signals particle by particle.
Assay [3] deals with CD28, endogenously expressed on Jurkat/IL2 reporter cells (human) (UniProt P10747). In words: flow cytometry on Jurkat/IL2 reporter cells (endogenous CD28), 33.3 nM Fc fusion, PE anti-human Fc.
The target of assay [4] is human CTLA-4 (huCTLA4), on stably transduced CHO cells (human) (UniProt P16410). In words: flow cytometry on CHO/huCTLA4 cells; MFI relative to WT CD80 (CD80 WT IgV-Fc = 1.0).
Assay [5] has as its target CD28, endogenously expressed on Jurkat/IL2 reporter cells (human) (UniProt P10747). Put plainly: flow cytometry on Jurkat (CD28) cells; MFI relative to WT CD80 (CD80 WT IgV-Fc = 1.0).
Assay [6] addresses human PD-L1 (huPD-L1), on stably transduced CHO cells (human) (UniProt Q9NZQ7). Put plainly: flow cytometry on CHO cells stably expressing huPD-L1, 33.3 nM Fc fusion, PE anti-human Fc.
Assay [7] concerns the target human CTLA-4 (huCTLA4), on stably transduced CHO cells (human) (UniProt P16410). In words: flow cytometry on CHO cells stably expressing huCTLA4, 33.3 nM Fc fusion, PE anti-human Fc.
The target in assay [8] is human PD-L1 (human) (UniProt Q9NZQ7). In words: flow cytometry; PD-L1 MFI over CD28 MFI of the same protein.
Target sequence in this assay (Q9NZQ7 19-290): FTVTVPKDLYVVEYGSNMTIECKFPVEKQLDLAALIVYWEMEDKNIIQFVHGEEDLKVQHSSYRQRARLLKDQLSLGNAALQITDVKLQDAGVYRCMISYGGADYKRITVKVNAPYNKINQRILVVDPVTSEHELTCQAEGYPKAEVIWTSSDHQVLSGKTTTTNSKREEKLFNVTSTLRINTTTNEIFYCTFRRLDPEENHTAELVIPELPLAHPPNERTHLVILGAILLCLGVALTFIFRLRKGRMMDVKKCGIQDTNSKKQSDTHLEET
Assay [9] shares this target. Put plainly: flow cytometry, CHO cells expressing huPD-L1.
Target sequence in this assay (Q9NZQ7 19-290): as above
Assay [10] concerns the target human CTLA-4 (human) (UniProt P16410). Put plainly: flow cytometry, CHO cells expressing huCTLA-4.
In assay [11] the target is CD28 (human) (UniProt P10747). In words: flow cytometry, Jurkat/IL2 reporter cells (CD28).
Assay [12] concerns the target human PD-L1 (human) (UniProt Q9NZQ7). In words: flow cytometry, CHO/huPD-L1 cells; vs WT CD80 ECD-Fc (Abcam).
Target sequence in this assay (Q9NZQ7 19-290): as above
Assay [13] concerns the target CD28 (human) (UniProt P10747). Put plainly: flow cytometry, Jurkat cells (CD28); vs WT CD80 ECD-Fc (Abcam).
The target in assay [14] is human CTLA-4 (human) (UniProt P16410). In words: flow cytometry, CHO/huCTLA-4 cells; vs WT CD80 ECD-Fc (Abcam).
The target in assay [15] is human PD-L1 (human) (UniProt Q9NZQ7).
Target sequence in this assay (Q9NZQ7 19-290 limits assumed): as the sequence (Q9NZQ7 19-290) above
The target of assay [16] is CD28 (human) (UniProt P10747).

human PD-L1 (huPD-L1), on stably transduced CHO cells (human), sequence (Q9NZQ7 19-290): as above
human CTLA-4 (human), sequence (P16410 36-223): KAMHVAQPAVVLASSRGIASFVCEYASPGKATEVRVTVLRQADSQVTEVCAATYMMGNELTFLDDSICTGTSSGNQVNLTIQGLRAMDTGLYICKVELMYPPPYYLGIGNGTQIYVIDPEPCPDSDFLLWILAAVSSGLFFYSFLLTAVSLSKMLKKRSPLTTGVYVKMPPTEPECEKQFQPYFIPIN
human CTLA-4 (huCTLA4), on stably transduced CHO cells (human), sequence (P16410 36-223): as above

B1: variant CD80 IgV-Fc D46V/M47I/A71G (Fc fusion)
chain: VIHVTKEVKEVATLSCGHNVSVEELAQTRIYWQKEKKMVLTMMSGVINIWPEYKNRTIFDITNNLSIVILGLRPSDEGTYECVVLKYEKDAFKREHLAEVTLSVKAD
For the molecule B1, the Fold change to WT CD80 in [1] was found to be 104 fold; in assay [4] it was 14.8 fold; in [5], 20.1 fold. The Ratio of PDL1:CD28 in assay [2] worked out at 6. Moreover, the MFI at 33.3 nM in assay [3] was 1320 MFI; in assay [6], 7330 MFI; in [7] it was 28400 MFI.

B2: variant CD80 IgV-Fc E35D/D46E/L85M (Fc fusion)
chain: VIHVTKEVKEVATLSCGHNVSVEELAQTRIYWQKDKKMVLTMMSGEMNIWPEYKNRTIFDITNNLSIVILALRPSDEGTYECVVMKYEKDAFKREHLAEVTLSVKAD
As for B2, the Fold change to WT CD80 was found to be 41 fold in [1], 15.8 fold in [4] and 2.5 fold in assay [5]. Also, in assay [2], the Ratio of PDL1:CD28 worked out at 18. Besides, the MFI at 33.3 nM was determined as 164 MFI in assay [3], 2880 MFI in assay [6] and 30300 MFI in assay [7].

B3: variant CD80 IgV-Fc H18Y/E35D/M47L/A71G/A91S (Fc fusion)
chain: VIHVTKEVKEVATLSCGYNVSVEELAQTRIYWQKDKKMVLTMMSGDLNIWPEYKNRTIFDITNNLSIVILGLRPSDEGTYECVVLKYEKDSFKREHLAEVTLSVKAD
As to B3, the Fold change to WT CD80 was found to be 108 fold in assay [1], 12.6 fold in assay [4] and 8 fold in assay [5]. Further, the Ratio of PDL1:CD28 in assay [2] came out at 14. For the same molecule, the results for the MFI at 33.3 nM in [3], in assay [6] and in assay [7] were 528 MFI, 7580 MFI and 24200 MFI, respectively.

B4: variant CD80 IgV-Fc E35D/D46E (Fc fusion)
chain: VIHVTKEVKEVATLSCGHNVSVEELAQTRIYWQKDKKMVLTMMSGEMNIWPEYKNRTIFDITNNLSIVILALRPSDEGTYECVVLKYEKDAFKREHLAEVTLSVKAD
As for B4, the Fold change to WT CD80 came out at 53.4 fold in [1], 14.6 fold in assay [4] and 11.8 fold in [5]. Also, the Ratio of PDL1:CD28 in [2] came to 5. The MFI at 33.3 nM came out at 779 MFI in assay [3], 3760 MFI in assay [6] and 27900 MFI in [7].

B5: variant CD80 IgV-Fc Q27H/E35D/M47I (Fc fusion)
chain: VIHVTKEVKEVATLSCGHNVSVEELAHTRIYWQKDKKMVLTMMSGDINIWPEYKNRTIFDITNNLSIVILALRPSDEGTYECVVLKYEKDAFKREHLAEVTLSVKAD
For the molecule B5, the results for the Fold change to WT CD80 in assay [1], in [4] and in [5] were 48.7 fold, 14.4 fold and 11.5 fold, respectively. For the same molecule, the Ratio of PDL1:CD28 in [2] worked out at 5. Also, the results for the MFI at 33.3 nM in assay [3], in [6] and in assay [7] were 756 MFI, 3420 MFI and 27500 MFI, respectively.

B6: variant CD80 IgV-Fc Q27L/E35D/M47V/I61V/L85M (Fc fusion)
chain: VIHVTKEVKEVATLSCGHNVSVEELALTRIYWQKDKKMVLTMMSGDVNIWPEYKNRTIFDVTNNLSIVILALRPSDEGTYECVVMKYEKDAFKREHLAEVTLSVKAD
As to B6, the Fold change to WT CD80 was found to be 38.5 fold in assay [1], 14.6 fold in [4] and 3.5 fold in assay [5]. In addition, in [2], the Ratio of PDL1:CD28 was determined as 12. The figures for the MFI at 33.3 nM in [3], in assay [6] and in [7] were 230 MFI, 2700 MFI and 27900 MFI, respectively.

B7: variant CD80 IgV-Fc M47I/A71G (Fc fusion)
chain: VIHVTKEVKEVATLSCGHNVSVEELAQTRIYWQKEKKMVLTMMSGDINIWPEYKNRTIFDITNNLSIVILGLRPSDEGTYECVVLKYEKDAFKREHLAEVTLSVKAD
As for B7, the Fold change to WT CD80 in assay [1] turned out to be 72.5 fold; in assay [4] it was 14.5 fold; in assay [5], 12.5 fold. Also, the Ratio of PDL1:CD28 in assay [2] worked out at 6. Moreover, the results for the MFI at 33.3 nM in assay [3], in assay [6] and in [7] were 823 MFI, 5100 MFI and 27800 MFI, respectively.

B8: variant CD80 IgV-Fc E35D/M47L/A71G/L85M (Fc fusion)
chain: VIHVTKEVKEVATLSCGHNVSVEELAQTRIYWQKDKKMVLTMMSGDLNIWPEYKNRTIFDITNNLSIVILGLRPSDEGTYECVVMKYEKDAFKREHLAEVTLSVKAD
As for B8, the Fold change to WT CD80 was 118 fold in assay [1], 8.7 fold in assay [4] and 3 fold in assay [5]. Further, the Ratio of PDL1:CD28 in assay [2] was determined as 42. Moreover, the MFI at 33.3 nM amounted to 199 MFI in [3], 8310 MFI in [6] and 16600 MFI in [7].

B9: variant CD80 IgV-Fc E35D/D46E/M47I (Fc fusion)
chain: VIHVTKEVKEVATLSCGHNVSVEELAQTRIYWQKDKKMVLTMMSGEINIWPEYKNRTIFDITNNLSIVILALRPSDEGTYECVVLKYEKDAFKREHLAEVTLSVKAD
B9: the Fold change to WT CD80 was determined as 53.9 fold in assay [1], 11.2 fold in [4] and 15.2 fold in [5]. For the same molecule, the Ratio of PDL1:CD28 in assay [2] came out at 4. Also, the results for the MFI at 33.3 nM in assay [3], in assay [6] and in assay [7] were 1000 MFI, 3790 MFI and 21400 MFI, respectively.

B10: variant CD80 IgV-Fc M47V/V68M (Fc fusion)
chain: VIHVTKEVKEVATLSCGHNVSVEELAQTRIYWQKEKKMVLTMMSGDVNIWPEYKNRTIFDITNNLSIMILALRPSDEGTYECVVLKYEKDAFKREHLAEVTLSVKAD
On to B10, for which the Ratio of PDL1:CD28 with human PD-L1 (human) [8] was 13.1. The MFI at 33.3 nM with human PD-L1 (human) [9] is 4290 MFI; with human CTLA-4 (human) [10], 7280 MFI; with CD28 (human) [11], 328 MFI. In addition, the Fold change to WT CD80 came out at 33.5 fold in the assay with human PD-L1 (human) [12], 0.5 fold with CD28 (human) [13] and 0.2 fold with human CTLA-4 (human) [14]. Moreover, the IL-2 luciferase reporter, fold increase over WT CD80-IgV-Fc at 5.0 nM in the assay with human PD-L1 (human) [15] and with CD28 (human) [16] was 4.8 fold throughout.

B11: variant CD80 IgV-Fc M47V (Fc fusion)
chain: VIHVTKEVKEVATLSCGHNVSVEELAQTRIYWQKEKKMVLTMMSGDVNIWPEYKNRTIFDITNNLSIVILALRPSDEGTYECVVLKYEKDAFKREHLAEVTLSVKAD
For the molecule B11, the Ratio of PDL1:CD28 in the assay with human PD-L1 (human) [8] is 33.7. For the same molecule, the MFI at 33.3 nM with human PD-L1 (human) [9] came out at 2320 MFI; with human CTLA-4 (human) [10], 33300 MFI; with CD28 (human) [11], 68.7 MFI. Besides, the Fold change to WT CD80 in the assay with human PD-L1 (human) [12] stood at 18.1 fold; with CD28 (human) [13], 0.1 fold; in the assay with human CTLA-4 (human) [14] it was 0.8 fold. For the same molecule, the IL-2 luciferase reporter, fold increase over WT CD80-IgV-Fc at 5.0 nM with human PD-L1 (human) [15] and with CD28 (human) [16] was 3.9 fold each time.

B12: variant CD80 IgV-Fc E35D/K89N (Fc fusion)
chain: VIHVTKEVKEVATLSCGHNVSVEELAQTRIYWQKDKKMVLTMMSGDMNIWPEYKNRTIFDITNNLSIVILALRPSDEGTYECVVLKYENDAFKREHLAEVTLSVKAD
Turning to B12, the Ratio of PDL1:CD28 with human PD-L1 (human) [8] was determined as 3.2. Besides, the MFI at 33.3 nM in the assay with human PD-L1 (human) [9] turned out to be 757 MFI; with human CTLA-4 (human) [10], 21800 MFI; with CD28 (human) [11], 236 MFI. In addition, the values for the Fold change to WT CD80 in the assay with human PD-L1 (human) [12], with CD28 (human) [13] and with human CTLA-4 (human) [14] were 5.9 fold, 0.3 fold and 0.5 fold, respectively. Besides, the IL-2 luciferase reporter, fold increase over WT CD80-IgV-Fc at 5.0 nM with human PD-L1 (human) [15] and with CD28 (human) [16] was 2.5 fold throughout.
